A short description of series [1]: Pharmacokinetics studies of PTH-1 derivatives in rats (single subcutaneous injection, LC-MS/MS, NCA). The class given is in vivo. The conditions noted are these: rat, experiment of Example 10 repeated in the same way. On the procedure:
PTH-1 and L6-GFA16-PTH-1 were injected subcutaneously with a single administration of 8.6 μg/kg, respectively. Animals in each group were collected blood at 0 min, 5 min, 15 min, 30 min, 1 h, 2 h, and 4 h after administration. […] Exposure time of drugs in vivo was prolonged and exposure doses were increased.

For series [2] the following is noted: subcutaneous administration or intramuscular injection, background statement; cited from earlier work.
The conditions of series [3]: general background statement; cited from earlier work.

Where a SMILES comes first, the peptide text is derived from it. The star is where a group is joined. X6 = O=C(O)CCCCCCCCCCCCCCC(=O)NC(CCC(=O)NCCOCCOCC(=O)NCCOCCOCCn1cc(CCOC(=O)*)nn1)C(=O)O; X5 = O=C(O)CCCCCCCCCCCCCCC(=O)NC(CCC(=O)NCCOCCOCCOCCn1cc(CCOC(=O)*)nn1)C(=O)O; X2 = O=C(O)CCCCCCCCCCCCCCC(=O)NC(CCC(=O)NCCn1cc(CCOC(=O)*)nn1)C(=O)O

The source of these data is patent US20220211857A1, “POLYPEPTIDE DERIVATIVE AND PREPARATION METHOD THEREOF” (NINGBO KUNPENG BIOTECH CO., LTD., priority 2019, published 2022).

In the case of `CC[C@H](C)[C@H](NC(=O)[C@H](CCC(=O)O)NC(=O)[C@H](CO)NC(=O)[C@@H](NC(=O)[C@@H](N)CO)C(C)C)C(=O)N[C@@H](CCC(N)=O)C(=O)N[C@@H](CC(C)C)C(=O)N[C@@H](CCSC)C(=O)N[C@@H](Cc1c[nH]cn1)C(=O)N[C@@H](CC(N)=O)C(=O)N[C@@H](CC(C)C)C(=O)NCC(=O)N[C@@H](CCCNC(=N)N)C(=O)N[C@@H](Cc1c[nH]cn1)C(=O)N[C@@H](CC(C)C)C(=O)N[C@@H](CC(N)=O)C(=O)N[C@@H](CO)C(=O)N[C@@H](CCSC)C(=O)N[C@@H](CCC(=O)O)C(=O)N[C@@H](CCCNC(=N)N)C(=O)N[C@H](C(=O)N[C@@H](CCC(=O)O)C(=O)N[C@@H](Cc1c[nH]c2ccccc12)C(=O)N[C@@H](CC(C)C)C(=O)N[C@@H](CCCNC(=N)N)C(=O)N[C@@H](CCCCNC(=O)OCCc1cn(CCNC(=O)CCC(NC(=O)CCCCCCCCCCCCCCC(=O)O)C(=O)O)nn1)C(=O)N[C@@H](CCCNC(=N)N)C(=O)N[C@@H](CC(C)C)C(=O)N[C@@H](CCC(N)=O)C(=O)N[C@@H](CC(=O)O)C(=O)N[C@H](C(=O)N[C@@H](Cc1c[nH]cn1)C(=O)N[C@@H](CC(N)=O)C(=O)N[C@@H](Cc1ccccc1)C(=O)O)C(C)C)C(C)C` (some centres unmarked) [L0-GFA16-PTH] (H-SVSEIQLMHNLGRHLNSMERVEWLRK(X2)RLQDVHNF-OH), the “half-lives (in words)” value in series [1] was “significantly prolonged”.
Still for that read-out and setting: the value for `CC[C@H](C)[C@H](NC(=O)[C@H](CCC(=O)O)NC(=O)[C@H](CO)NC(=O)[C@@H](NC(=O)[C@@H](N)CO)C(C)C)C(=O)N[C@@H](CCC(N)=O)C(=O)N[C@@H](CC(C)C)C(=O)N[C@@H](CCSC)C(=O)N[C@@H](Cc1c[nH]cn1)C(=O)N[C@@H](CC(N)=O)C(=O)N[C@@H](CC(C)C)C(=O)NCC(=O)N[C@@H](CCCNC(=N)N)C(=O)N[C@@H](Cc1c[nH]cn1)C(=O)N[C@@H](CC(C)C)C(=O)N[C@@H](CC(N)=O)C(=O)N[C@@H](CO)C(=O)N[C@@H](CCSC)C(=O)N[C@@H](CCC(=O)O)C(=O)N[C@@H](CCCNC(=N)N)C(=O)N[C@H](C(=O)N[C@@H](CCC(=O)O)C(=O)N[C@@H](Cc1c[nH]c2ccccc12)C(=O)N[C@@H](CC(C)C)C(=O)N[C@@H](CCCNC(=N)N)C(=O)N[C@@H](CCCCNC(=O)OCCc1cn(CCOCCOCCOCCNC(=O)CCC(NC(=O)CCCCCCCCCCCCCCC(=O)O)C(=O)O)nn1)C(=O)N[C@@H](CCCNC(=N)N)C(=O)N[C@@H](CC(C)C)C(=O)N[C@@H](CCC(N)=O)C(=O)N[C@@H](CC(=O)O)C(=O)N[C@H](C(=O)N[C@@H](Cc1c[nH]cn1)C(=O)N[C@@H](CC(N)=O)C(=O)N[C@@H](Cc1ccccc1)C(=O)O)C(C)C)C(C)C` (some centres unmarked) [L3-GFA16-PTH] (H-SVSEIQLMHNLGRHLNSMERVEWLRK(X5)RLQDVHNF-OH) was “significantly prolonged”.
With “PTH: parathyroid hormone; PTH-1 is the reference substance of Table 3 (SVSEIQLMHNLGRHLNSMERVEWLRKRLQDVHNF; Amino Acid Sequence of PTH)”, the half-life entry in series [2] is “about 12 hours”.
For the compound “GLP-1: glucose-dependent incretin polypeptide hormone; reference substance of Table 2”, the “biological half-life in vivo” value in series [3] is listed as 20 minutes.
In the case of `CC[C@H](C)[C@H](NC(=O)[C@H](CCC(=O)O)NC(=O)[C@H](CO)NC(=O)[C@@H](NC(=O)[C@@H](N)CO)C(C)C)C(=O)N[C@@H](CCC(N)=O)C(=O)N[C@@H](CC(C)C)C(=O)N[C@@H](CCSC)C(=O)N[C@@H](Cc1c[nH]cn1)C(=O)N[C@@H](CC(N)=O)C(=O)N[C@@H](CC(C)C)C(=O)NCC(=O)N[C@@H](CCCNC(=N)N)C(=O)N[C@@H](Cc1c[nH]cn1)C(=O)N[C@@H](CC(C)C)C(=O)N[C@@H](CC(N)=O)C(=O)N[C@@H](CO)C(=O)N[C@@H](CCSC)C(=O)N[C@@H](CCC(=O)O)C(=O)N[C@@H](CCCNC(=N)N)C(=O)N[C@H](C(=O)N[C@@H](CCC(=O)O)C(=O)N[C@@H](Cc1c[nH]c2ccccc12)C(=O)N[C@@H](CC(C)C)C(=O)N[C@@H](CCCNC(=N)N)C(=O)N[C@@H](CCCCNC(=O)OCCc1cn(CCOCCOCCNC(=O)COCCOCCNC(=O)CCC(NC(=O)CCCCCCCCCCCCCCC(=O)O)C(=O)O)nn1)C(=O)N[C@@H](CCCNC(=N)N)C(=O)N[C@@H](CC(C)C)C(=O)N[C@@H](CCC(N)=O)C(=O)N[C@@H](CC(=O)O)C(=O)N[C@H](C(=O)N[C@@H](Cc1c[nH]cn1)C(=O)N[C@@H](CC(N)=O)C(=O)N[C@@H](Cc1ccccc1)C(=O)O)C(C)C)C(C)C` (some centres unmarked) [L5-GFA16-PTH] (H-SVSEIQLMHNLGRHLNSMERVEWLRK(X6)RLQDVHNF-OH), the “half-lives (in words)” value in series [1] is “significantly prolonged”.
